Test results published in the supplement of paper PMC9233669.
Variants at the floor of the assay were thinned out.

Columns and labels:
biotinyl-Trp-oxazolone = experiment: self-aminoacylation, catalytic enhancement (BWO) (fold over background); higher = more active; k-Seq, kA / k0A0; sequences stand for … in GGGAAUGGAUCCACAUCUACGAAUUC…UUCACUGCAGACUUGACGAAGCUG
Procedure, shortened: (§1)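 Each biotinyl-aminoacyl-oxazolone, at 2–1250 μM, was incubated with mutagenized RNA pools (0.43 μM) carrying a 21-nt variable region. The 50 μL reactions contained HEPES/NaCl/KCl/MgCl2/CaCl2 buffer with 5% acetonitrile at pH 6.9–7.0 and ran for 90 minutes at room temperature. After streptavidin capture, RNA was measured by qPCR in triplicate and by Illumina sequencing, and catalytic enhancement was calculated as median kA over the uncatalyzed rate from a pseudo-first-order fit of per-sequence fraction reacted.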

biotinyl-Val-oxazolone = experiment: self-aminoacylation, catalytic enhancement (BVO) (fold over background); higher = more active; k-Seq, kA / k0A0; sequences stand for … in GGGAAUGGAUCCACAUCUACGAAUUC…UUCACUGCAGACUUGACGAAGCUG
Procedure, shortened: as §1

biotinyl-Ile-oxazolone = experiment: self-aminoacylation, catalytic enhancement (BIO) (fold over background); higher = more active; k-Seq, kA / k0A0; sequences stand for … in GGGAAUGGAUCCACAUCUACGAAUUC…UUCACUGCAGACUUGACGAAGCUG
Procedure, shortened: as §1

biotinyl-Met-oxazolone = experiment: self-aminoacylation, catalytic enhancement (BMO) (fold over background); higher = more active; k-Seq, kA / k0A0; sequences stand for … in GGGAAUGGAUCCACAUCUACGAAUUC…UUCACUGCAGACUUGACGAAGCUG
Procedure, shortened: as §1

biotinyl-Phe-oxazolone = experiment: self-aminoacylation, catalytic enhancement (BFO) (fold over background); higher = more active; k-Seq, kA / k0A0; sequences stand for … in GGGAAUGGAUCCACAUCUACGAAUUC…UUCACUGCAGACUUGACGAAGCUG
Procedure, shortened: as §1

biotinyl-Leu-oxazolone = experiment: self-aminoacylation, catalytic enhancement (BLO) (fold over background); higher = more active; k-Seq, kA / k0A0; sequences stand for … in GGGAAUGGAUCCACAUCUACGAAUUC…UUCACUGCAGACUUGACGAAGCUG
Procedure, shortened: as §1

Sequence | self-aminoacylation (biotinyl-Trp-oxazolone) | self-aminoacylation (biotinyl-Val-oxazolone) | self-aminoacylation (biotinyl-Ile-oxazolone) | self-aminoacylation (biotinyl-Met-oxazolone) | self-aminoacylation (biotinyl-Phe-oxazolone) | self-aminoacylation (biotinyl-Leu-oxazolone)
CCACACUUGAAGCAAUCGGUG [Fam1B.1 aminoacylation ribozyme variant] | 3.48 | 2.39 | 2.21 | 3.04 | 19.1 | 4.29
CCACACUUGAAGCAAUCGGUU [Fam1B.1 aminoacylation ribozyme variant] | 2.47 | 1.45 | 1.18 | 1.32 | 0.703 | 1.14
CCACACUUGAAGCAAUGGGUC [Fam1B.1 aminoacylation ribozyme variant] | 0.833 | 0.811 | 0.99 | 0.696 | 1.26 | 0.739
CCACACUUGCAGCAAUCGGUC [Fam1B.1 aminoacylation ribozyme variant] | 1.23 | 1.64 | 1.63 | 1.2 | 1.07 | 1.33
CCACACUUUAAGCAAUCGGUG [Fam1B.1 aminoacylation ribozyme variant] | 3.9 | 2.38 | 2.93 | 3.89 | 22.9 | 5.4
CCACACUUUAAGCAGUCGGUC [Fam1B.1 aminoacylation ribozyme variant] | 0.623 | 0.946 | 0.858 | 0.755 | 1.16 | 0.926
CCACACUUUAAGCCAUCGGUC [Fam1B.1 aminoacylation ribozyme variant] | 0.783 | 0.879 | 0.964 | 0.743 | 0.541 | 0.755
CCACACUUUAGGCAAUCGGUC [Fam1B.1 aminoacylation ribozyme variant] | 0.713 | 1.01 | 1.12 | 0.96 | 0.648 | 0.831
CCACACUUUUAGCAAUCGGUC [Fam1B.1 aminoacylation ribozyme variant] | 0.678 | 0.942 | 0.874 | 0.767 | 0.974 | 0.845
CCACAGCUCAAGCAAUCGGUC [Fam1B.1 aminoacylation ribozyme variant] | 2.35 | 1.29 | 1.18 | 1.05 | 3.21 | 1.16
CCACAGUUAAAGCAAUCGGUC [Fam1B.1 aminoacylation ribozyme variant] | 0.869 | 0.98 | 0.832 | 0.836 | 0.915 | 0.963
CCACAGUUCAAGCAAUCGGCC [Fam1B.1 aminoacylation ribozyme variant] | 3.18 | 3.95 | 2.11 | 2.66 | 0.924 | 2.6
CCACAGUUCAAGCAUUCGGUC [Fam1B.1 aminoacylation ribozyme variant] | 1.86 | 2.33 | 1.88 | 1.84 | 1.61 | 2.04
CCACAGUUUAAGCAAUCGGUC [Fam1B.1 aminoacylation ribozyme variant] | 0.708 | 0.758 | 0.82 | 0.857 | 0.825 | 0.786
CCACAUGUCAAGCAAUCGGUC [Fam1B.1 aminoacylation ribozyme variant] | 0.915 | 1.33 | 1.22 | 1.13 | 1.08 | 1.27
CCACAUUUCAAGCAGUCGGUC [Fam1B.1 aminoacylation ribozyme variant] | 0.803 | 1.15 | 1.15 | 0.9 | 0.868 | 0.899
CCACAUUUCAAUCAAUCGGUC [Fam1B.1 aminoacylation ribozyme variant] | 6.51 | 1.14 | 1.14 | 1.09 | 12.7 | 1.07
CCACCAUUCAAGCAAUCGGUC [Fam1B.1 aminoacylation ribozyme variant] | 1.4 | 1.3 | 1.16 | 0.934 | 1.89 | 0.958
CCACCCAUCAAGCAAUCGGUC [Fam1B.1 aminoacylation ribozyme variant] | 0.951 | 1.07 | 1.06 | 0.85 | 0.916 | 0.876
CCACCCUUCAAGCAAUCGGUG [Fam1B.1 aminoacylation ribozyme variant] | 6.85 | 4.61 | 4.86 | 7.37 | 63.7 | 10.2
CCACCCUUCAAGCAAUCGGUU [Fam1B.1 aminoacylation ribozyme variant] | 4.11 | 1.67 | 1.47 | 1.42 | 2.79 | 1.91
CCACCCUUCAAGCAAUUGGUC [Fam1B.1 aminoacylation ribozyme variant] | 1.04 | 0.984 | 0.814 | 0.907 | 1.33 | 0.814
CCACCCUUCCAGCAAUCGGUC [Fam1B.1 aminoacylation ribozyme variant] | 1.51 | 1.94 | 1.41 | 1.02 | 1.15 | 1.04
CCACGCUUCAAGCAAUCGCUC [Fam1B.1 aminoacylation ribozyme variant] | 1.13 | 1.42 | 0.955 | 0.927 | 0.605 | 0.929
CCACGCUUCAAGCAAUCGGGC [Fam1B.1 aminoacylation ribozyme variant] | 1.41 | 2.04 | 1.08 | 1.25 | 1.35 | 0.924
CCACGCUUCAAGCAAUCGGUA [Fam1B.1 aminoacylation ribozyme variant] | 1.13 | 1.14 | 0.724 | 0.873 | 1.37 | 0.943

Sequence | self-aminoacylation (biotinyl-Trp-oxazolone) | self-aminoacylation (biotinyl-Val-oxazolone) | self-aminoacylation (biotinyl-Ile-oxazolone) | self-aminoacylation (biotinyl-Met-oxazolone) | self-aminoacylation (biotinyl-Phe-oxazolone) | self-aminoacylation (biotinyl-Leu-oxazolone)
CCACGCUUCAAGCAUUCGGUC [Fam1B.1 aminoacylation ribozyme variant] | 1.31 | 1.93 | 1.24 | 1.06 | 0.774 | 1.11
CCACGCUUCAAGGAAUCGGUC [Fam1B.1 aminoacylation ribozyme variant] | 11 | 1.1 | 1.11 | 1.22 | 11.6 | 1.19
CCACGCUUCAAUCAAUCGGUC [Fam1B.1 aminoacylation ribozyme variant] | 20 | 1.18 | 1.01 | 0.865 | 30.8 | 1.34
CCACGCUUCACGCAAUCGGUC [Fam1B.1 aminoacylation ribozyme variant] | 1.95 | 1.82 | 1.15 | 1.4 | 0.964 | 1.09
CCACGCUUCCAGCAAUCGGUC [Fam1B.1 aminoacylation ribozyme variant] | 1.12 | 1.11 | 1.11 | 0.936 | 0.836 | 1.05
CCACGCUUGAAGCAAUCGGUC [Fam1B.1 aminoacylation ribozyme variant] | 1.01 | 1.28 | 0.895 | 0.861 | 0.547 | 0.714
CCACUCAUCAAGCAAUCGGUC [Fam1B.1 aminoacylation ribozyme variant] | 0.731 | 0.971 | 0.977 | 0.73 | 0.817 | 0.997
CCACUCUUCAAGCAAUCGUUC [Fam1B.1 aminoacylation ribozyme variant] | 0.68 | 0.857 | 0.87 | 0.915 | 1.06 | 0.724
CCACUUCAAACAAUCGGUCUG [Fam1A.1 aminoacylation ribozyme variant] | 49.3 | 1.63 | 1.51 | 1.76 | 114 | 2.75
CCACUUCAAACAAUCUGUCUG [Fam1A.1 aminoacylation ribozyme variant] | 1.78 | 0.641 | 0.723 | 0.511 | 2.99 | 0.642
CCACUUCAAACAGUCGGUCUG [Fam1A.1 aminoacylation ribozyme variant] | 1.54 | 1.39 | 1.19 | 1.09 | 0.637 | 0.89
CCACUUCAAGCAAUCGGUCUG [Fam1A.1 aminoacylation ribozyme variant] | 11.8 | 1.28 | 1.23 | 1.15 | 18.6 | 1.22
CCACUUGAAACAAUCGGUCUG [Fam1A.1 aminoacylation ribozyme variant] | 0.785 | 1.18 | 1.15 | 1.19 | 0.824 | 1.03
CCAGACUACAAGCAAUCGGUC [Fam1B.1 aminoacylation ribozyme variant] | 1.35 | 1.42 | 1.26 | 1.16 | 1.07 | 1.17
CCAGACUUCAAGCAAGCGGUC [Fam1B.1 aminoacylation ribozyme variant] | 0.843 | 0.932 | 0.87 | 0.821 | 0.523 | 1.15
CCAGACUUCAAGCAAUCGCUC [Fam1B.1 aminoacylation ribozyme variant] | 1.54 | 2.11 | 2.23 | 2.06 | 5.36 | 2.71
CCAGACUUCAAGCAAUGGGUC [Fam1B.1 aminoacylation ribozyme variant] | 0.74 | 0.856 | 0.856 | 0.72 | 0.887 | 0.759
CCAGACUUCAAGCUAUCGGUC [Fam1B.1 aminoacylation ribozyme variant] | 0.76 | 1.41 | 1.41 | 1.08 | 1.11 | 1.16
CCAGACUUCACGCAAUCGGUC [Fam1B.1 aminoacylation ribozyme variant] | 1.65 | 1.76 | 1.64 | 1.79 | 4.39 | 1.6
CCAGACUUGAAGCAAUCGGUC [Fam1B.1 aminoacylation ribozyme variant] | 1.07 | 1.12 | 1.07 | 1.08 | 0.942 | 1.16
CCAUACGUCAAGCAAUCGGUC [Fam1B.1 aminoacylation ribozyme variant] | 1.16 | 1.12 | 1.04 | 1.03 | 0.88 | 1.34
CCAUACUUCAAGCAACCGGUC [Fam1B.1 aminoacylation ribozyme variant] | 0.794 | 1 | 1.06 | 0.74 | 1.06 | 0.894
CCAUACUUCAAGCAAUCAGUC [Fam1B.1 aminoacylation ribozyme variant] | 2.64 | 0.81 | 0.884 | 0.659 | 7.22 | 0.804
CCAUACUUCAAGCAAUCUGUC [Fam1B.1 aminoacylation ribozyme variant] | 0.251 | 0.555 | 0.536 | 0.439 | 0.503 | 0.384
CCAUCCUUCAAGCAAUCGGUC [Fam1B.1 aminoacylation ribozyme variant] | 9.38 | 1.19 | 1.13 | 1.15 | 16.4 | 1.3
